Consider 2 molecules from patent US20150087807A1.

The experiment deals with synthetic mimetic peptide m1E41920. Kind of experiment: indirect ELISA, m1E41920 peptide coated, nonlinear regression (GraphPad Prism).

B1: humanized single chain variable fragment of 1E4 (huscFv1E4) (scFv)
scFv: QCLVESGGGVVQPGRSLRLSCAASGFTFSNYRVHWVRQAPGKGLEWIAVIAVKSDNYGANYAESVKGRFTISRDNSKNTLYLQMNSLRAEDTAVYYCRSTVVVMGDYFAMDYWGQGTSVTVSSGGGGSGGGGSGGGGSDIVLTQSPAFLSVTPGEKVTITCRASQNIGTYIHWYQQKPDQAPKLLIKYASESVSGVPSRFSGSGSGTDFTFTISSLEAEDAATYYCQQSNTWPYTFGGGTKLEIKRADAAPTVSKLAAALEHHHHHH
One may read the EC50 as the midpoint of the concentration-response curve. Regarding B1, the EC50 was 62.3 nM.

B2: recombinant murine single chain variable fragment of 1E4 (muscFv1E4) (scFv)
scFv: ECLEESGGGLVRPGNSLKLSCVTSGFTFSNYRVHWLRQPPGKRLEWIAVIAVKSDNYGANYAESVKGRFTISRDDSKSSVYLQMNRLREEDTATYYCRSTVVVMGDYFAMDYWGQGTSVTVSSGGGGSGGGGSGGGGSDIELTQSPAILSVSPGERVSFSCRASQNIGTYIHWYQQRTNGSPRLLIKYASESVSGIPSRFSGRGSGTDFTLSISSVESEDIADYYCQQSNTWPYTFGGGTKLEIKRADAAPTVSKLAAALEHHHHHH
The molecule B2 came in with an EC50 of 73.1 nM.
